From patent publication US20220401560A1, “PEPTIDE ENCAPSULATING FERRITIN” (Ajinomoto Co., Inc., priority 2019, published 2022)

Target: transferrin receptor TfR (human) (UniProt P02786)
Experiment: cell-based or functional assay

Sequence of FAM-SV40 encapsulating FTH (P02794 whole entry): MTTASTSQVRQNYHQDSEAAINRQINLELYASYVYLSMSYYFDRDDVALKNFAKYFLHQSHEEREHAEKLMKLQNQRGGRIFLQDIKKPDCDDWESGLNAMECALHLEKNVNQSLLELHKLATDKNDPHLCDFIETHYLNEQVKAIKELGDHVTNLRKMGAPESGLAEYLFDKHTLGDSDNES

“FAM-SV40 encapsulating FTH (from UniProt P02794 1-183)” showed a concentration needed for fluorescence from 90% or more of HEK 293E cells (low TfR expression) by FACS greater than 800 nM, a percent of fluorescent SKBR 3 cells (high TfR expression) by FACS at 100 nM FAM-SV40 encapsulating FTH greater than 90% and a ratio of fluorescent cells, SKBR 3 (high TfR) against HEK 293E (low TfR), at 100 nM of 60 times.
